The record followed here is patent US20130273029A1 (Novartis, published 2013).

Assay [1] concerns the target T1, Human HER3, endogenous, on human cancer cell lines (SK-Br-3, MCF7, BT-474) (human, UniProt P21860 20-1342). In words: cell-based or functional assay.
For assay [2], the target named is T1, Human HER3, endogenous, on human cancer …. The experiment in a line: cell-based or functional assay. This is another data set of the same source.
In assay [3] the target is T2, Cyno HER3: CD33-[Cyno HER3, residues 20-643]-TAG (cynomolgus, UniProt G7PIG5 20-643).
T2 construct: also called cy HER3-Tag; not shown: C-terminal TAG (e.g., FLAG TAG)
In words: SET, IgG vs soluble HER3-Tag. As for the experimental part:
(§1) Affinity determination in solution was essentially performed as previously described (Friguet et al., (1985) J Immunol Methods 77:305-19). In order to improve the sensitivity and accuracy of the SET method, it was transferred from classical ELISA to ECL based technology (Haenel et al., (2005) Anal Biochem 339:182-84).
(§2) The data was evaluated with XLfit software (ID Business Solutions) applying customized fitting models.
(§3) Antibody affinity was determined by solution equilibrium titration (SET) as described above. The results are summarized in Table 3 and example titration curves for MOR12616 and MOR12925 are contained in FIG. 1.

Assay [4] deals with T3, Mu HER3: CD33-[Murine HER3, residues 20-643]-TAG (murine, UniProt Q61526 20-643).
T3 construct: also called mu HER3-Tag; not shown: C-terminal TAG (e.g., FLAG TAG)
In words: SET, IgG vs soluble HER3-Tag. The protocol:
as §1, §2, §3

Assay [5] addresses T4, Rat HER3: CD33-[Rat HER3, residues 20-643]-TAG (rat, UniProt Q62799 20-643).
T4 construct: also called ra HER3-Tag; not shown: C-terminal TAG (e.g., FLAG TAG)
In words: SET, IgG vs soluble HER3-Tag. The protocol:
as §1, §2, §3

Assay [6] addresses T5, Hu HER3: CD33-[Human HER3, residues 20-640]-TAG (human, UniProt P21860 20-640).
T5 construct: also called hu HER3-Tag; HER3-Tag; not shown: C-terminal TAG (e.g., FLAG TAG)
The experiment in a line: SET, IgG vs soluble HER3-Tag. The protocol:
as §1, §2, §3

For assay [7], the target named is T1, Human HER3, endogenous, on human cancer …. The experiment in a line: cell-based or functional assay. The source holds these as a separate data set.

T1 sequence (P21860 20-1342): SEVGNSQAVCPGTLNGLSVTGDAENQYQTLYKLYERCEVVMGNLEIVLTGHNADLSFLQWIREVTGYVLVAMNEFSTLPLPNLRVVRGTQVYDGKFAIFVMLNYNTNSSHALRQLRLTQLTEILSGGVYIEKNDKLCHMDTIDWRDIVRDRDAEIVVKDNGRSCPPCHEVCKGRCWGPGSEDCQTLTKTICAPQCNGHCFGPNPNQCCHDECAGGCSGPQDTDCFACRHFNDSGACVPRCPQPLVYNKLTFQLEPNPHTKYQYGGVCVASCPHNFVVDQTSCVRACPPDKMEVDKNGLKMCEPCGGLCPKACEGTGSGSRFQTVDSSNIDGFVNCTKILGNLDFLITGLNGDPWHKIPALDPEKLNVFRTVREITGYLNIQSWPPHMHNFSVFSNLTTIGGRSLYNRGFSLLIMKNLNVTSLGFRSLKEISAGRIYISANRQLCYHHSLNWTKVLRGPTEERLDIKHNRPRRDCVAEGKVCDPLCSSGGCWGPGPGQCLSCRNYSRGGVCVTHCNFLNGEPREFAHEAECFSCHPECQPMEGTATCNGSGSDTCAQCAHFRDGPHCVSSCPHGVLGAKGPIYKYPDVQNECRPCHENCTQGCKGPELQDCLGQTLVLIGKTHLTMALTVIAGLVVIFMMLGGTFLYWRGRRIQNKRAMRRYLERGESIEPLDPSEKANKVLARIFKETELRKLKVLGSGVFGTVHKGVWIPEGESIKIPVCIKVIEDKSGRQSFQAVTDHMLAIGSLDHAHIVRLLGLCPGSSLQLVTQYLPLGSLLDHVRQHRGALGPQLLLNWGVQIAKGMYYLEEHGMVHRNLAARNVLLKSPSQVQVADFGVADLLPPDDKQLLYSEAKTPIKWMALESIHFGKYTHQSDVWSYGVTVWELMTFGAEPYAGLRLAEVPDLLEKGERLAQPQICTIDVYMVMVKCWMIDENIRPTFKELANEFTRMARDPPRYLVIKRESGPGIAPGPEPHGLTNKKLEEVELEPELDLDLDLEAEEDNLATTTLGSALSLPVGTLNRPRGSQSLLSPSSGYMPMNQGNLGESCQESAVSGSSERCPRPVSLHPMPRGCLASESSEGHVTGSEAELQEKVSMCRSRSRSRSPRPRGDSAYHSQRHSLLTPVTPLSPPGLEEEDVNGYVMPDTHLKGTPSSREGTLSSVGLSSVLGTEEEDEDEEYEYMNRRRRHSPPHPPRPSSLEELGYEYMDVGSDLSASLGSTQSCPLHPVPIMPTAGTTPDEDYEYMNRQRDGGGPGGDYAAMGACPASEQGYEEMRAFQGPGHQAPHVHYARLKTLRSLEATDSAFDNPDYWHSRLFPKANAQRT
T5 sequence (P21860 20-640): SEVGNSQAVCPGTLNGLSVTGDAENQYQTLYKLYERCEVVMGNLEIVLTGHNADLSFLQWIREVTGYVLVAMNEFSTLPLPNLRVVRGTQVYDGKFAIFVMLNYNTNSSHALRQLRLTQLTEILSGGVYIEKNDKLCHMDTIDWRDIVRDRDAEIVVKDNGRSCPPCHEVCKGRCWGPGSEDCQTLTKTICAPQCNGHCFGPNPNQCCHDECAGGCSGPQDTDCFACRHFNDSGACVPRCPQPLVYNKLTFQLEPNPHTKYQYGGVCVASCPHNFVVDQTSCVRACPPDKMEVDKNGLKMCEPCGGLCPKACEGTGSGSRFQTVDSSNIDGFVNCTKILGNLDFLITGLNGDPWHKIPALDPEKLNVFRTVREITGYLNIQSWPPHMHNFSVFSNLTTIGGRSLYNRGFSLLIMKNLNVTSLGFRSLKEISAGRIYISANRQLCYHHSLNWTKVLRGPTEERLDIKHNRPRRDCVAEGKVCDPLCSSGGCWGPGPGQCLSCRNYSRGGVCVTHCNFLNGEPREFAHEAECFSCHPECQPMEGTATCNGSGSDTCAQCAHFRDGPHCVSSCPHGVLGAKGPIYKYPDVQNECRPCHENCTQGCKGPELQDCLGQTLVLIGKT
T2 sequence (G7PIG5 entry or part of it): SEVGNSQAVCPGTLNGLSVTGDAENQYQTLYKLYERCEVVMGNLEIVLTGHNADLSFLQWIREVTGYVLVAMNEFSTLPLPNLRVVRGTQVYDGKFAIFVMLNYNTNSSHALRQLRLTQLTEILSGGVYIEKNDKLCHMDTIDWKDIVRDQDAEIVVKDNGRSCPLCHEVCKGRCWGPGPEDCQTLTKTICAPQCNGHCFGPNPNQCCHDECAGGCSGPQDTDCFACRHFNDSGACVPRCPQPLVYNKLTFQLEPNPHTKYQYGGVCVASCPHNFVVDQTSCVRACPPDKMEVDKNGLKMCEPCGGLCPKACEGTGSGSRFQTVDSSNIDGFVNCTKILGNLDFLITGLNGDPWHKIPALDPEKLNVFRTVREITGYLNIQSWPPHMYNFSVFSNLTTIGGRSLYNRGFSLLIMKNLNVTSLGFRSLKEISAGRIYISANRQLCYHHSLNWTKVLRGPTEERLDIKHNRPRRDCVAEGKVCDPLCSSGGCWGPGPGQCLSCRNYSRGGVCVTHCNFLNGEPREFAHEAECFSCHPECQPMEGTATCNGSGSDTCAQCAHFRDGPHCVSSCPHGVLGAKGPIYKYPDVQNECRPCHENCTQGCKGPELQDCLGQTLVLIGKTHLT
T3 sequence (Q61526 20-643): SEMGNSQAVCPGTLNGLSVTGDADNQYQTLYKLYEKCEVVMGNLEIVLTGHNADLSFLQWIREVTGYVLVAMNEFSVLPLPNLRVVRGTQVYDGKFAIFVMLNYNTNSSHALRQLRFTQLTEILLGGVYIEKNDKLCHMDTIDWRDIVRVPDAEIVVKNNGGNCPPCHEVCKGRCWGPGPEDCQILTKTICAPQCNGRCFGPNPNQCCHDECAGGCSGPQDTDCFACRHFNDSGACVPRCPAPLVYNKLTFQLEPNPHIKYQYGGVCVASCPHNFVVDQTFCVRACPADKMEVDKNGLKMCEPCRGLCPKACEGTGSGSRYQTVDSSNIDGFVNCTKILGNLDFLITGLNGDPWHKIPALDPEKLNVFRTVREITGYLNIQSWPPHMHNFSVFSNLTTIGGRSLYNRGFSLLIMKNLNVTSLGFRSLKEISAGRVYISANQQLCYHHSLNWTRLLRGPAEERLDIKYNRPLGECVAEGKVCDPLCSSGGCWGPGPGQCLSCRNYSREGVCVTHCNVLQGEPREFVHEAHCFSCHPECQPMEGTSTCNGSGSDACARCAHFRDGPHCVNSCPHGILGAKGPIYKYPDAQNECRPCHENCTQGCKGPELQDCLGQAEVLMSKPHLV
T4 sequence (Q62799 20-643): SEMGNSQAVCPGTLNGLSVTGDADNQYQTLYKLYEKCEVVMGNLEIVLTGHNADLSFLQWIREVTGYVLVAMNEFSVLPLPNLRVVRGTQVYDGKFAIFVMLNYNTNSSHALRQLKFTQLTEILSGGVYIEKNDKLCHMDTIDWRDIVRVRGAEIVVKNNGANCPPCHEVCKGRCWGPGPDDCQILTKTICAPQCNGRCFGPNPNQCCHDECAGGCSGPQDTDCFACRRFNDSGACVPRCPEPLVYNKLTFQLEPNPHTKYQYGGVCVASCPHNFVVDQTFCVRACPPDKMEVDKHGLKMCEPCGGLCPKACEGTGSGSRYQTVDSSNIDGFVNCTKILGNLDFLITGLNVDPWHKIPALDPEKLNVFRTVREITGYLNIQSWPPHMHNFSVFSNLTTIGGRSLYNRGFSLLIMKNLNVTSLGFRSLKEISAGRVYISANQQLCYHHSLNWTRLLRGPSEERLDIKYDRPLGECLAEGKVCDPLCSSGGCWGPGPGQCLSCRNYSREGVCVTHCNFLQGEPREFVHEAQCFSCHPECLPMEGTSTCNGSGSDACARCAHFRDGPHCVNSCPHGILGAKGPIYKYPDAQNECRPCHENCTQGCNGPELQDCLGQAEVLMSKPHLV

B1: MOR12509 (antibody, human IgG1, kappa, V domains shown)
VH: QVQLVQSGAEVKKPGESLKISCKGSGYSFTNSWVAWVRQMPGKGLEWMGIIYPGNSDTIYSPSFQGQVTISADKSISTAYLQWSSLKASDTAMYYCARVHIIQPPSAWSYNAMDVWGQGTLVTVSS
VL: DIQMTQSPSSLSASVGDRVTITCRASQSITHYLNWYQQKPGKAPKLLIFGASNLQSGVPSRFSGSGSGTDFTLTISSLQPEDFATYYCQQAFVDPSTTFGQGTKVEIKR
notes: tested as IgG
For the molecule B1, in assay [1], the “BT474 pHER3 % inhibition” value was 84%, the “MCF7 pHER3 % inhibition” value amounted to 70%, the “MCF7 pHER3 IC50” value amounted to 712 pM and the “SK-Br-3 pHER3 % inhibition” value was 76%. Moreover, in assay [1], the “SK-Br-3 pHER3 IC50” value turned out to be 483 pM. Further, in assay [2], the “MCF7 proliferation % inhibition” value worked out at 24%, the “MCF7 proliferation IC50” value turned out to be 1.47 nM, the “SK-Br-3 proliferation % inhibition” value is 45% and the “SK-Br-3 proliferation IC50” value turned out to be 0.572 nM. In addition, binding in assay [3] was put at a Kd of 0.32 nM. Also, the equilibrium dissociation constant (Kd) – broadly, a measure of binding affinity in units of concentration – in assay [4] is 0.25 nM. This molecule also showed a Kd in assay [5] of 0.48 nM. Also, the Kd in assay [6] is 0.078 nM.

B2: MOR13870 (antibody, human IgG1, kappa, V domains shown)
VH: QVQLVQSGAEVKKPGESLKISCKGSGYSFSNYWIAWVRQMPGKGLEWMGIIYPGTSDTIYSPSFQGQVTISADKSISTAYLQWSSLKASDTAMYYCARVHIIQPPSAWSYNAMDVWGQGTLVTVSS
VL: DIQMTQSPSSLSASVGDRVTITCRASQSISTYLNWYQQKPGKAPKLLIFGASNLQSGVPSRFSGSGSGTDFTLTISSLQPEDFATYYCQQSITELFTFGQGTKVEIKR
notes: tested as IgG
Take B2: in assay [7], the “BT-474 pAkt (S473) % inhibition” value is 77%, the “BT-474 pAkt (S473) IC50” value amounted to 424 pM, the “SK-Br-3 pAkt (S473) % inhibition” value was 91% and the “SK-Br-3 pAkt (S473) IC50” value was 76 pM. Besides, in assay [1], the “BT474 pHER3 % inhibition” value was found to be 66%, the “BT474 pHER3 IC50” value stood at 535 pM, the “MCF7 pHER3 % inhibition” value is 71% and the “MCF7 pHER3 IC50” value was 84 pM. Also, in assay [1], the “SK-Br-3 pHER3 % inhibition” value stood at 81% and the “SK-Br-3 pHER3 IC50” value was determined as 110 pM. Also, in assay [2], the “BT-474 proliferation % inhibition” value was 43%, the “BT-474 proliferation IC50” value is 0.539 nM, the “MCF7 proliferation % inhibition” value was determined as 48% and the “MCF7 proliferation IC50” value was found to be 0.061 nM. Also, in assay [2], the “SK-Br-3 proliferation % inhibition” value turned out to be 39% and the “SK-Br-3 proliferation IC50” value was found to be 1.14 nM. The Kd in assay [6] turned out to be 0.173 nM.

B3: MOR13871 (antibody, human IgG1, kappa, V domains shown)
VH: QVQLVQSGAEVKKPGESLKISCKGSGYSFSNYWIAWVRQMPGKGLEWMGIIYPGSSDTIYSPSFQGQVTISADKSISTAYLQWSSLKASDTAMYYCARVHIIQPPSAWSYNAMDVWGQGTLVTVSS
VL: DIQMTQSPSSLSASVGDRVTITCRASQSISTYLNWYQQKPGKAPKLLIFGASNLQSGVPSRFSGSGSGTDFTLTISSLQPEDFATYYCQQSITELFTFGQGTKVEIKR
notes: tested as IgG
As for B3, in assay [7], the “BT-474 pAkt (S473) % inhibition” value came out at 83%, the “BT-474 pAkt (S473) IC50” value came to 1630 pM, the “SK-Br-3 pAkt (S473) % inhibition” value was 93% and the “SK-Br-3 pAkt (S473) IC50” value was found to be 97 pM. In assay [1], the “BT474 pHER3 % inhibition” value came to 68%, the “BT474 pHER3 IC50” value turned out to be 608 pM, the “MCF7 pHER3 % inhibition” value amounted to 74% and the “MCF7 pHER3 IC50” value was determined as 43 pM. Further, in assay [1], the “SK-Br-3 pHER3 % inhibition” value is 83% and the “SK-Br-3 pHER3 IC50” value was determined as 105 pM. In addition, in assay [2], the “BT-474 proliferation % inhibition” value amounted to 43%, the “BT-474 proliferation IC50” value stood at 1 nM, the “MCF7 proliferation % inhibition” value turned out to be 58% and the “SK-Br-3 proliferation % inhibition” value amounted to 32%. In addition, the “SK-Br-3 proliferation IC50” value in assay [2] amounted to 1.29 nM. In assay [6], this molecule gave a Kd of 0.193 nM.
